Five molecules from patent US20230183352A1 (published 2023) can be followed below.

The target of test [1] is T1, PD-L1 Protein, Cynomolgus, Recombinant (His Tag) (cynomolgus, UniProt G7PSE7 19-239).
T1 construct: Bought protein; also called QPP10.1; cynoPD-L1; not shown: His tag
Description: SPR, Biacore T200, antibody captured.

Test [2] has as its target T2, Biotin QP004.3 (biotin-PDL1-FC) (human, UniProt Q9NZQ7 19-238, limits assumed, biotinylated (sites not given)). The experiment in a line: PD-L1 binding ELISA, antibody coated, biotin-PDL1-FC titrated.
The target of test [3] is T3, PD-L1 Protein, Human, Recombinant (His Tag) (human, UniProt Q9NZQ7 19-239).
T3 construct: Bought protein; also called QPP09.1; SinoBiologic 10084-H08H
The experiment in a line: SPR Biacore T200, antibody captured, PD-L1 His as analyte, 1:1 binding. For orientation: SPR reads the build-up and loss of mass on a sensor chip optically.

The target in test [4] is T4, PD-L1 Protein, Cynomolgus, Recombinant (His Tag) (cynomolgus).
T4 construct: Bought protein; also called QPP10.1; SinoBiologic 90251-C08H
The test is described as above.

For test [5], the target named is T2, Biotin QP004.3 (biotin-PDL1-FC). The experiment in a line: PD-L1/PD-1 blocking ELISA, PD1-FC coated; row labelled EC50; competitor PD1-FC.
Test [6] concerns the target T5, Claudin 18.2 (CLDN18.2), expressed on CHOS-CLDN 18.2 / HEK293-CLDN 18.2 / HCC827-CLDN 18.2 cells (human, UniProt P56856-2 1-261). Description: cell-based or functional assay.
Test [7] deals with T5, Claudin 18.2 (CLDN18.2), expressed on …. The experiment in a line: FACS, CHOS-CLDN18.2 cells. A general note: In flow cytometry, cells or beads pass a laser one at a time.
For test [8] the target is unchanged. The experiment in a line: FACS, CHOS-CLDN18.2 cells, 5 µg/ml.
For test [9] the target is unchanged. Description: FACS, CHOS-CLDN18.2 cells, 20 µg/ml.
For test [10] the target is unchanged. The experiment in a line: FACS, CHOS-CLDN18.2 cells, 10 µg/ml.
The target is the same in test [11]. Description: FACS, CHOS-CLDN18.2 cells, 0.005 µg/ml.
Test [12] has the same target. Description: FACS, CHOS-CLDN18.2 cells, 0.020 µg/ml.
For test [13] the target is unchanged. Description: FACS, CHOS-CLDN18.2 cells, 0.078 µg/ml.
The target is the same in test [14]. Description: FACS, CHOS-CLDN18.2 cells, 0.313 µg/ml.
The target is the same in test [15]. The experiment in a line: FACS, CHOS-CLDN18.2 cells, 1.250 µg/ml.
Test [16] has the same target. Description: FACS, CHOS-CLDN18.2 cells, 0 µg/ml (background).
The target is the same in test [17]. The experiment in a line: FACS, MFI on CHOS-CLDN18.2 over MFI on CHOS-CLDN18.1, 10 µg/ml.

T3 sequence (Q9NZQ7 19-239 limits assumed): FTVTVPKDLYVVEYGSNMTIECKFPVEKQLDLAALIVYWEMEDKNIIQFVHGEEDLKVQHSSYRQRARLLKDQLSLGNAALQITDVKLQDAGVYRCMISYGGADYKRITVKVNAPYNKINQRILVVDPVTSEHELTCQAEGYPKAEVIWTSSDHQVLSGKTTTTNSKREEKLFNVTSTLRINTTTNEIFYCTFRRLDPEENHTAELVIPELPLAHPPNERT
T1 sequence (G7PSE7 entry or part of it): as the sequence (Q9NZQ7 19-239 limits assumed) above, with A33T, A34S, S62N, R68Q, Q82R, F173L, T185A, T192I, H215L counted along it
T2 sequence (Q9NZQ7 19-238 limits assumed): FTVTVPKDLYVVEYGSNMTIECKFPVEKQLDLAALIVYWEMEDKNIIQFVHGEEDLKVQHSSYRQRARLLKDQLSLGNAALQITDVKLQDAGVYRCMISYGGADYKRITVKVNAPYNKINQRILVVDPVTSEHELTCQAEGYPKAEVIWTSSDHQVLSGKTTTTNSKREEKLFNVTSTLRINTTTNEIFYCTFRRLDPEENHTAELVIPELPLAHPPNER

B1: QP322 (Fc fusion)
chain: EVQLLESGGGLVQPGGSLRLSCAASGFTYGTYAMSWFRQAPGKGREGVACIDIYGRASYTDPVKGRFTISQDNSKNTLYLQMNSLKAEDTAVYYCAARDFGYCTASWVHEGFSRYWGQGTLVTVSS
notes: Humanized from QP1162; also called 1162-V3; humanized nanobody QP322; not shown: human IgG1-FC constant region fused to the C terminal of the VHH
Consider B1, for which the binding result in test [1] was “binds”.

B2: QP322 (Fc fusion)
chain: EVQLLESGGGLVQPGGSLRLSCAASGFTYGTYAMSWFRQAPGKGREGVACIDIYGRASYTDPVKGRFTISQDNSKNTLYLQMNSLKAEDTAVYYCAARDFGYCTASWVHEGFSRYWGQGTLVTVSS
notes: Humanization design of QP1162; VHH at the N-terminal of FC; also called 1162-V3; QD322; not shown: human IgG1-FC constant region fused to the C terminal of the VHH
On to B2, for which, in test [2], it took 0.00753 µg/mL to reach a half-maximal effect (EC50). Further, in test [3], the Kd (in general, a measure of binding affinity in units of concentration) was determined as 2.37 nM; the koff – broadly, a measure of how fast the partners let go of each other – was 0.00311 s⁻¹; the kon (in general, the rate constant with which the complex forms) is 1.31e+06 M⁻¹ s⁻¹. In addition, in test [4], the Kd was determined as 5.39 nM, the koff stood at 0.00354 s⁻¹ and the kon came to 657000 M⁻¹ s⁻¹. Further, in [5], the IC50 (usually the concentration that gives 50% inhibition) was determined as 5.12 nM.

B3: QP325 (Fc fusion)
chain: EVQLLESGGGLVQPGGSLRLSCAASGFTYGTYAMSWFRQAPGKGLEGVACIDIYGRTSYTDPVKGRFTISQDNSKNTLYLQMNSLRAEDTAVYYCAARDFGYCTASWVHEGFSRYWGQGTLVTVSS
notes: Humanized from QP1166; also called 1166-V3; humanized antibody QP325; not shown: human IgG1-FC constant region fused to the C terminal of the VHH
As to B3, the binding result in test [1] is “binds”.

B4: QP1162 (VHH)
VHH: QVQLVESGGGSVQSGGSLRLSCAASGFTYGTYAMSWFRQAPGKEREGVACIDIYGRASYTDPVKGRFTISQDNAKNTLYLQMNSLKPEDTAMYYCAARDFGYCTASWVHEGFSRYWGQGTQVTVSS
notes: also called nanobody QP1162; camel nanobody QP1162
B4: the binding result in [1] is reported as “binds”.

B5: QP14371433 (antibody, human IgG1, kappa, V domains shown)
VH: EVQLVESGGGLVKPGGSLRLSCAASGFTFSNYAMSWVRQAPGKGLEWVASIISGGRTYYLDSEKGRFTISRDNAKNSLYLQMNSLRAEDTAVYYCTRIYYGNSFDYWGQGTLVTVSS
VL: DIVMTQSPDSLAVSLGERATINCKSSQSLLNSGNQKNYLTWYQQKPGQPPKLLIYWASTRESGVPDRFSGSGSGTDFTLTISSLQAEDVAVYYCQNDYSYPFTFGQGTKLEIKR
notes: Humanized from QP190191; also called QP14331437
Consider B5, for which, in [6], the “EC50 of killing, ADCC (PBMC, HEK293-CLDN18.2 cells)” value was 0.0162 µg/mL; the “Killing percentage, ADCC (PBMC, HEK293-CLDN18.2 cells), 0 µg/ml” value came to 9.02%; the “Killing percentage, ADCC (PBMC, HEK293-CLDN18.2 cells), 0.0001024 µg/ml” value amounted to 8.31%; the “Killing percentage, ADCC (PBMC, HEK293-CLDN18.2 cells), 0.000512 µg/ml” value stood at 10.5%. Moreover, in test [6], the “Killing percentage, ADCC (PBMC, HEK293-CLDN18.2 cells), 0.00256 µg/ml” value turned out to be 13.3%; the “Killing percentage, ADCC (PBMC, HEK293-CLDN18.2 cells), 0.0128 µg/ml” value is 31.3%; the “Killing percentage, ADCC (PBMC, HEK293-CLDN18.2 cells), 0.064 µg/ml” value came out at 41.5%; the “Killing percentage, ADCC (PBMC, HEK293-CLDN18.2 cells), 0.32 µg/ml” value was found to be 49.6%. In [6], the “Killing percentage, ADCC (PBMC, HEK293-CLDN18.2 cells), 1.6 µg/ml” value is 56.4%; the “Killing percentage, ADCC (PBMC, HEK293-CLDN18.2 cells), 8 µg/ml” value is 53.8%; the “Killing percentage, ADCC (PBMC, HEK293-CLDN18.2 cells), 40 µg/ml” value was found to be 52.3%. In test [7], the EC50 (as a rule, the concentration that produces a half-maximal response) was found to be 0.36 µg/mL and the max was determined as 174000. This molecule registered an FACS reading in [8] of 174000. In [9], this molecule yielded an FACS reading of 115000. Also, in test [10], the MFI is 433000. Besides, the FACS reading in test [11] was found to be 3730. Moreover, the FACS reading in test [12] worked out at 10800. The FACS reading in test [13] was found to be 17700. The FACS reading in [14] is 65900. In [15], this molecule registered an FACS reading of 133000. The FACS reading in [16] was found to be 754. Moreover, the “CLDN18.2/CLDN18.1 (MFI ratio)” value in [17] was found to be 448.
